# ± gives the standard deviation of the averaged measurements.
# How the values were obtained:
# [1] = melting temperature (DSF); higher = more thermostable
# Procedure, shortened: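 Enzymes made in E. coli C41(DE3) were nickel-bead purified and cut free with SUMO protease before testing. Differential scanning fluorimetry gave each melting temperature. For this, 5 μL 5X Sypro Orange was added to 45 μL enzyme (0 to 0.3 mg/mL) in sealed PCR plates, and a Bio-Rad CFX96 read fluorescence from 25 °C over 250 cycles of 0.3 °C each, ramping at 0.3 °C/s.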
# [2] = purified protein yield per well (BCA); higher = higher soluble expression
# Procedure, shortened: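 The measured quantity is purified protein yield per well, determined with the Pierce Rapid Gold BCA kit. Anything below 25 ug (0.1 mg/mL) lies under the detection threshold. Enzymes were expressed in E. coli C41(DE3) in 2 mL autoinduction cultures with 100 µg/mL kanamycin at 37 °C for 2 h, then 18 °C for 40 h, and purified on an OT-2 robot using Ni-charged magnetic beads and SUMO protease release.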
# [3] = PET hydrolysis, aromatic products released after 48 h (umol product/mg enzyme); higher = more PET depolymerization activity
# Procedure, shortened: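 Hydrolysis activity toward PET is reported as supernatant aromatic product per mg enzyme. To measure it, 5 μg (50 μL) of tagless enzyme was incubated with 3.5 mg amorphous PET film or crystalline PET powder in 450 μL buffer for 48 h at 40 or 60 °C in sealed, unshaken plates. The product was quantified by absorbance at 260 and 280 nm relative to buffer blanks.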
# [4] = substrate: aFilm, 40 °C, pH 4.5
# [5] = substrate: aFilm, 40 °C, pH 5.5
# [6] = substrate: aFilm, 40 °C, pH 6.5
# [7] = substrate: aFilm, 40 °C, pH 7.5
# [8] = substrate: aFilm, 60 °C, pH 4.5
# [9] = substrate: aFilm, 60 °C, pH 5.5
# [10] = substrate: aFilm, 60 °C, pH 6.5
# [11] = substrate: aFilm, 60 °C, pH 7.5
# [12] = substrate: cryPow, 40 °C, pH 4.5
# [13] = substrate: cryPow, 40 °C, pH 5.5
# [14] = substrate: cryPow, 40 °C, pH 6.5
# [15] = substrate: cryPow, 40 °C, pH 7.5
# [16] = substrate: cryPow, 60 °C, pH 4.5
# [17] = substrate: cryPow, 60 °C, pH 5.5
# [18] = substrate: cryPow, 60 °C, pH 6.5
# [19] = substrate: cryPow, 60 °C, pH 7.5
# [20] = substrate: cryPow, 40 °C, pH 8.5
# [21] = substrate: cryPow, 60 °C, pH 8.5
Sequence,melting temperature [1] [C],purified protein yield per well [2] [µg],"PET hydrolysis [3, 4]","PET hydrolysis [3, 5]","PET hydrolysis [3, 6]","PET hydrolysis [3, 7]","PET hydrolysis [3, 8]","PET hydrolysis [3, 9]","PET hydrolysis [3, 10]","PET hydrolysis [3, 11]","PET hydrolysis [3, 12]","PET hydrolysis [3, 13]","PET hydrolysis [3, 14]","PET hydrolysis [3, 15]","PET hydrolysis [3, 16]","PET hydrolysis [3, 17]","PET hydrolysis [3, 18]","PET hydrolysis [3, 19]","PET hydrolysis [3, 20]","PET hydrolysis [3, 21]","PET hydrolysis ([3]; substrate: aFilm, 40 °C, pH 8.5)","PET hydrolysis ([3]; substrate: aFilm, 60 °C, pH 8.5)"
APPARVAALATTAYQRGPAPTLSGVRAALGPFSYSTASVSAAATGYTFGGGTVYYPDDTSQGTFGGIAVTPGYTGTEGSIAWLGPRLASQGFVVITIATKSLYDQPTARGQQLLAALDYLKTYSPAAVRQRLDPQRLAVSGHSMGGGGALYAVWSRPSLKAAVPLAPYHTIKNWSAITVPTLIEAGTADTVTPVGTFAEPIYQSLTGASERAYAEVAGANHLTFTAENPLIGGLEVAWMKRFVDDDARYDQFLCPAPTDPGLTEYRDSCPTS [TEP101],56.5,377,< 3,< 3,< 3,< 3,< 3,< 3,< 3,< 3,< 3,9 ± 1.4,18.5 ± 0.71,24 ± 2.8,< 3,3,7.5 ± 0.71,7.5 ± 0.71,,,,
AQENPYERGPAPTAQNITEDGPFAYATATVPAQSGFAGGAIYYPTDTSQGTFGAVAAVPGFLTPVDDVAWMGPRLASHGFVVFTIEPNSRFEFPSGRAAALKAGLTYLTQSSAVRDRVDPTRLAVAGHSMGGGAALEAALKDPNLKAAVALQPWHTGVNFSTVNVPSMIVGAENDPIASPASHAEPFYEQIPAASEKAYLNLAGVGHEVGGVVTNDTQSSMMLTWLKRYVDNDTRYEPFMCPGPSGSSVLEYRGTCPG [TEP170],49.3,137,,,,,,,,,< 3,< 3,< 3,< 3,< 3,< 3,< 3,< 3,,,,
AQTSQVVTANPHQRGPDPTPETVRAPQGTFAFSTYSVPASVTGFGQGTIYYPDDTTQGTFAGVAISPGYTGPEASVAWLGPRLASRGFVVITITTNSRYDQPTSRGKQLLAALDYLTKQSPTEVRQRLDATRLGVMGHSMGGGGALYAAYKRPSLKAAVPLAPWNLIKNWSGIRVPTLVVAGTADKTASAGAHSLPFYSSMTGARERAFADVTGADHLTFVREDPVIGALAVSWLKRFLDDDTRYAPFITEPVGLSRFLCSCPYAG [DP007],51.7,46,,,,,,,,,,< 3,8,16,,,,,16,,,
ASPYERGPDPTDSILEASRGPFATSQLSVSSLSVSGFGGGTVYYPTDTSQGTFGAIAISPGYTARWSSLAWLGPRIASHGFVVIGIETNTIYDQPASRGRQLLAALDYLTSSSPSTVRSRIDASRLAVAGHSMGGGGTLEAANDRPSLQAAVPLAPWNLTKIWSGVRVPTMIIGGEADTVAPVASHSEPFYQSIPSSVEKAYLELNNASHFFPQTTNTTMAKSMVAWLKRFVDDDTRYDQFLCPAPRGLAIQEYRDTCPIS [TEP144],46.6,32.6,,,,,,,,,< 3,< 3,< 3,< 3,,,,,,,,
ASPYERGPNPTAASVSATTGPFAIASVSVARGNGFGGGVIYYPTATNQGTFGGIAISPGLNGTWAGIAWLGPRLASQGFVVFGIETNNLNDSPTSRGTQLLAALDYLTQRSTVRTRVDAGRLAVMGHSMGGGGALDAALRRPSLQAAIGNAPHLPSGTLSNDRVPTMIYAMQNDTLVPPSRLTTLYNSIPATTERGYILVTGAGHNYIGQPSTTLARTMIPWFKIFIDDDTRYSQFLCPMSNQSGISQYRNSCPLS [ESM160],55.6,400,< 3,< 3,< 3,< 3,< 3,< 3,< 3,< 3,< 3,13.5 ± 2.1,43.5 ± 3.5,66.5 ± 0.71,< 3,< 3,7.5 ± 0.71,14 ± 1.4,,,,
ASPYERGPNPTTAILEASSGPYSVSSVSVSSLVTGFGGGRIYYPTTTADGTFGGIAISPGFTARWSSLEWLGPRIASHGFVVIGIETNSIYDQPTSRGQQLLAALDYLVNSSSARTRVDRNRLAVAGHSMGGGGTLYAANARPSLQAAVPIAPWNTDKTWGGVQVPTMIIGGESDSVAPVATHAIPFYTSIPASSEKAYLELNNASHFFPQTVNTTMAKSMVSWLKRYVDDDTRYDPWLCPAPSGLSISDYRDTCPA [DP084],48.7,91,,,,,,,,,,< 3,3,9,,< 3,< 3,< 3,11,< 3,,
ASPYQRGPNPTAASIAATTGPFAIASITVPRGNGFGGGVIYYPTSTSQGTFGGIAISPGLNGTWSGISWLGPRLASQGFVVFGIETNNLNDSPTSRGTQLLAALDYLTQRSSVRSRLDANRLAVMGHSMGGGGALDAALRRPTLKATIGNAPHLPSGSLANDRVPTLIYAMQNDTLVTPARLTSLYNTIPAATERAYIEVTGAGHNYIGQPSTTLARTMIPWLKIFIDSDTRYAPFLCPLNDRSGIRQYRNSCPLI [ESM128],66.4,407,< 3,< 3,< 3,6,< 3,< 3,< 3,< 3,< 3,43,75 ± 1.4,110 ± 4.2,< 3,4.5 ± 0.71,18.5 ± 3.5,41.5 ± 6.4,,,,
ASYQRGPDPTVQSVAANRGTFATAELTVPRGFGFNGGKIYYPTDTSQGTWGAIAAVPGYTASWAAEGAWMGPWLASFGFVVIGIDTNSPTDYDTARGTQLLAALDYLTGQSAVRDRVDPNRLAVLGHSMGGGGAISAAMRRPSLKAAVPLAPASFSQNLSNVRVPTLIMGARDDGTITPSSIDGLWSSKPATTQGARVELASGGHGFPTWGNSQVTRREIPWLKIFLDNDNRYAQFLCPSLADSTGVSRYISQCPYGSTGQPSSPPVSSPPAAGGPVRAVGAGKCLDVPNASQTNDTQLAIWDCNGGSNQQWTYTSGKQLRVYGGKCLDASGHGMSNGTRVIIWDCGGGANQQWNVNANGTITGVESGLCLDVTGAATANGALVDLWACNNGGNQQWRLG [ESM097],58.3,81.7,,,,,,,,,< 3,< 3,< 3,4,,,,,,,,
ASYQRGPDPTVQSVAANRGTFPTAEITVPRGYGFNGGKIYYPTDTSQGTWGAIAAVPGYTASWAAEGAWMGPWLASFGFVVIGIDTNSPTDFDTARGTQLLAALDYLTGQSAVRDRVDPNRLAVLGHSMGGGGAISAAMRRPTLKAAIPLAPASFSQNLSTVRVPTLIMGARDDGTVTPSSINSLWATKPATTKGAYVELTGGGHGFPTWGNSQVTRREIPWLKIFLDNDNRYTQFLCPSLADNTGVSRYLSECPYGSTGQPTSPPSTPPPTSGGPVRAVGAGKCLDVPNASQTNDTQLAIWDCNGGTNQRWTRTAGKQLTVYGNKCLDAAGQGTTNGTRVIIWDCTGTANQQWNVNANGTITGVQSGLCLDVSGGSTANGALTQLWACNNGSNQQWRLG [ESM070],64.6,254,,,,,,,,,< 3,4,10,17,< 3,< 3,< 3,< 3,,,,
ATGPSSPCSNCTRGPDPTVASLKSATGPYTTAKFSVSGYLKGFGDSTVYYPTNASGKMGAIAVIPGYVSYEDSIKWWGPRLASHGFVVMTMNTSTIYDQPDSRATQLSKALDYMIAQSGSSSSPIYNKVDSTRLGVIGWSMGGGGTLKLSTQRSINAIIPQAPYYAGSNSFNTIKTPALILACGADAVAPVGVHASPFYNRIPGTTPKAYLEIYGGSHFCANSGYPNEDLLGMYGIAWMKRFIDFDSRYSKFLCGPNHTADLNISEYRQNCNY [DP078],59.5,29,,,,,,,,,,9,47,60,,,,,66,,,
ATGPSSPCTNCTRGPNPTVAALKSNSGPFSTAKFSVSGYLKGFGDSTVYYPTNTTGKMGAIAVIPGYLSYESSIEWWGPRLASHGFVVITMNTNTIYDQPDSRATQLSKALDYVIAQSNSSSSPIAGKVDSTRLGAIGWSMGGGGSLKLSTQRSLNAIIPQAPYYAGSNSFNTIKTPTLILACGVDAVAPVAAHASPFYNKIPNTTPKAFLEIYGGSHFCANSGYPNQDLLGMYGISWMKRFIDFDKRYSQFLCGPNHQADLAISEYRQNCNY [ESM048],49.6,48,,,,,,,,,< 3,< 3,< 3,< 3,,,,,,,,
ATNPYERGPAPTGTSVAADRGPFATAQLTVAKGNGFGGGVVYYPTDTSQGTFGAIAIAPGYGTEWRWYAWLGPRLASFGFVVLGIETNSLDDYADARGAQLLSALDWLVDSSPVRDRVDRTRLAVGGHSMGGGGALTAAIQRPSLMTAIGMAPYVPDGILRTIKIPTVLFGGQTDTTVTPSYLASAYATIPATVQRAYPEIANEGHGFAAGGGGGNSGAFARTMMIWMKVFIDKDTRYTGFLCPTLSNMSGISKYQASCPLGPTSGPSQSPSSSPSSTPSSSPSSTPSVSPSSTPSASPPGGPCRATYRTVNSWSGGYQGEVTVTAGGSAVNGWTVKWALSGGQSVTQVWNGTLSASGSNVSVSNASYNGSLGAGASTTFGFLANGTPSTPSPTCTSP [ESM021],68.8,275,< 3,< 3,< 3,< 3,< 3,< 3,< 3,< 3,< 3,4.5 ± 0.71,9,9 ± 1.4,< 3,< 3,< 3,< 3,,,,
ATNPYQRGPAPTAESISAERGSFAVADSAVSADSVSGFGGGTVYYPTDTSAGKFGAVAIAPGFTANEWSLAWLGPRLASHGFVVFIIDTITTGDQPAQRGDELRAALSYLTTSSPVRDRVDPARLGVMGHSMGGGGALQAAEDDPSIRAVIPMTPYDLDSPSPKVTAPTLIIGAQDDTIAPVAYHARPFYESLTSARAKEYIELRNQSHFAPNYPNATIASASIAWLKRYIDDDQRYQPFACPAQVGSWLISDFRSAC [DP034],47.5,180,,< 3,< 3,< 3,,< 3,< 3,< 3,,< 3,< 3,< 3,,< 3,< 3,< 3,< 3,< 3,< 3,< 3

# — the supplement of paper PMC12455559
